# Assay results reported in the supplement of paper PMC10567573.
# B1: POLD2 addRQ (peptide)
# chain: CQPISFSGFGAEDDDLGGLGLGPRQ
# Test: protein stability index of a GFP-peptide fusion (GPS, HEK-293T) (PSI 1-6); higher = more stable
# Conditions: parent: NP_006221.1; c terminus: native
# 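Also: lentivirally expressed fusion library, cells FACS-sorted into six equal-sized GFP/DsRed ratio bins, PSI computed from sequencing read fractions per bin weighted by bin number.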
protein,measurement,value
B1,protein stability index,4.81
